Laboratory results: the supplement of paper PMC7877785
± gives the uncertainty stated by the source.

Assay: self-splicing fitness, log relative to wild type (ln ratio); higher = more splicing; Tetrahymena group I intron in knt gene, E. coli kanamycin selection, DiMSum; sequences stand for … in CUCUCU…GGAGGGAAAAGUUAUCAGGCAUGCACCUGGUAGCUAGUCUUUAAACCAAUAGAUUGCAUCGGUUUAAAAGGCAAGACCGUCAAAUUGCGGGAAAGGGGUCAACAGCCGUUCAGUACCAAGUCUCAGGGGAAACUUUGAGAUGGCCUUGCAAAGGGUAUGGUAAUAAGCUGACGGACAUGGUCCUAACCACGCAGCCAAGUCCUAAGUCAACAGAUCUUCUGUUGAUAUGGAUGCAGUUCACAGACUAAAUGUCGGUCGGGGAAGAUGUAUUCUUCUCAUAAGAUAUAGUCGGACCUCUCCUUAAUGGGAGCUAGCGGAUGAAGUGAUGCAACACUGGAGCCGCUGGGAACUAAUUUGUAUGCGAAAGUAUAUUGAUUAGUUUUGGAGUACUCGUGGUCG
How it was run: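 A randomised library covering all eight P1ex-region intron nucleotides was built with the intron in the knt kanamycin-resistance gene on pET-22b(+) and held in E. coli BL21(DE3). Cells were grown overnight at 37°C or 30°C on LB agar, with or without 25 μg/mL kanamycin, plus 100 μg/mL carbenicillin, 50 μM IPTG and 0.2% rhamnose, and pooled colonies were amplicon-sequenced on an Illumina HiSeq 2500. DiMSum fitness is the error-weighted combination of wild-type-normalised replicate fold changes, kanamycin versus none.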

Row | Sequence | self-splicing fitness (ln) (30 °C) | self-splicing fitness (ln) (37 °C)
1 | AAAAAGCAAUAUUACGUAUA | -2.14 ± 0.14 | -1.5 ± 0.15
2 | CGGCAGCAAUAUUACGGAAC | -2.88 ± 0.16 | -3.76 ± 0.33
3 | UCCUAGCAAUAUUACGUUCU | -3.14 ± 0.14 | -2.51 ± 0.13
4 | GGCCAGCAAUAUUACGUACA | -2.75 ± 0.17 | -1.71 ± 0.15
5 | ACUUAGCAAUAUUACGGUAU | -3.18 ± 0.12 | -2.5 ± 0.13
6 | GUAUAGCAAUAUUACGCUCG | -0.631 ± 0.15 | -0.0296 ± 0.19
7 | CUGGAGCAAUAUUACGGAGC | -3.08 ± 0.34 | -2.38 ± 0.38
8 | UUAAAGCAAUAUUACGCGUC | -1.08 ± 0.11 | -1.66 ± 0.16
9 | GAAUAGCAAUAUUACGCCAU |  | -1.49 ± 0.36
10 | GCAGAGCAAUAUUACGAAAG | -2.9 ± 0.16 | -3.24 ± 0.26
11 | CGGCAGCAAUAUUACGAAAC | -3.19 ± 0.33 | -2.93 ± 0.25
12 | AACUAGCAAUAUUACGUUUU | -3.52 ± 0.097 | -1.32 ± 0.075
13 | GUUAAGCAAUAUUACGGAAG | -3.2 ± 0.19 | -1.6 ± 0.2
14 | CGAGAGCAAUAUUACGGCAA |  | -2.79 ± 0.48
15 | CUCCAGCAAUAUUACGCCCC | -4.17 ± 0.46 | 
16 | CUUGAGCAAUAUUACGAUGU | -2.24 ± 0.14 | -3.43 ± 0.26
17 | GGUAAGCAAUAUUACGUUUG |  | -2.56 ± 0.21
18 | AAUCAGCAAUAUUACGAGAU | -2.72 ± 0.11 | -0.708 ± 0.1
19 | AGGUAGCAAUAUUACGAGUC | -3.864 ± 0.037 | -2.49 ± 0.043
20 | CGCGAGCAAUAUUACGAAGU | -3.36 ± 0.21 | -2.57 ± 0.31
21 | UCACAGCAAUAUUACGGGCA | -0.496 ± 0.075 | -0.337 ± 0.083
22 | UCUGAGCAAUAUUACGAGUA | -2.16 ± 0.16 | -2.17 ± 0.26
23 | CCGCAGCAAUAUUACGCCCA |  | -2.55 ± 0.31
24 | UAUGAGCAAUAUUACGCUCA | -2.45 ± 0.31 | -2.73 ± 0.27
25 | GUUCAGCAAUAUUACGGCAG | -2.82 ± 0.28 | -1.82 ± 0.31

Row | Sequence | self-splicing fitness (ln) (30 °C) | self-splicing fitness (ln) (37 °C)
26 | CCGAAGCAAUAUUACGGAGA | -2.52 ± 0.25 | -2.68 ± 0.34
27 | GAUUAGCAAUAUUACGACAU | -0.469 ± 0.014 | -0.0848 ± 0.033
28 | UUUCAGCAAUAUUACGAGUA | -1.3 ± 0.11 | -0.691 ± 0.1
29 | AAUGAGCAAUAUUACGCUGA | -3.08 ± 0.38 | -2.12 ± 0.24
30 | CAGAAGCAAUAUUACGAUUA | -2.93 ± 0.17 | -1.51 ± 0.12
31 | UUCAAGCAAUAUUACGGAGG | -4.04 ± 0.27 | -2.58 ± 0.19
32 | UGGAAGCAAUAUUACGGCAG | -1.15 ± 0.16 | -0.772 ± 0.25
33 | AUACAGCAAUAUUACGGAAC | -3.46 ± 0.43 | -1.67 ± 0.35
34 | UGUCAGCAAUAUUACGAUAA | -0.114 ± 0.06 | 0.438 ± 0.074
35 | UCUAAGCAAUAUUACGCCUC | -3.67 ± 0.35 | -2.98 ± 0.47
36 | AUGGAGCAAUAUUACGUUUG | -3.38 ± 0.29 | -2.58 ± 0.36
37 | GAUUAGCAAUAUUACGACUG | -0.181 ± 0.12 | -0.313 ± 0.14
38 | AGAGAGCAAUAUUACGGGUA | -4.04 ± 0.42 | -1.47 ± 0.19
39 | CUUAAGCAAUAUUACGAACC |  | -0.593 ± 0.37
40 | CCGGAGCAAUAUUACGUAAA | -3.29 ± 0.25 | -2.09 ± 0.47
41 | UACCAGCAAUAUUACGCGCC | -1.46 ± 0.12 | -1.1 ± 0.2
42 | GCGUAGCAAUAUUACGGCUU | -1.21 ± 0.11 | -0.0921 ± 0.14
43 | AUUCAGCAAUAUUACGACCC | 0.119 ± 0.42 | 
44 | UUUAAGCAAUAUUACGCGCC | -1.12 ± 0.18 | -1.4 ± 0.26
45 | CGCGAGCAAUAUUACGGGUG | -2.14 ± 0.077 | -1.68 ± 0.1
46 | CCCAAGCAAUAUUACGAACU | -3.54 ± 0.34 | -2.91 ± 0.38
47 | UAGCAGCAAUAUUACGUCGA | -1.12 ± 0.071 | -0.528 ± 0.082
48 | ACGCAGCAAUAUUACGGUUC | -3.63 ± 0.22 | -1.89 ± 0.15
49 | GCUGAGCAAUAUUACGUAAG | -1.55 ± 0.12 | -0.739 ± 0.16
50 | UCGAAGCAAUAUUACGCGCG | -1.26 ± 0.1 | -0.735 ± 0.12
